Experimental data from patent US20220073643A1 (NANJING GENSCRIPT BIOTECH, published 2022).
Positions count from the first letter of the chain named. Where “and” joins values, the source holds several entries; their conditions need not be identical. Equal values may be shown once.

B1: 280F3B6 (antibody, V domains shown)
VH: QAYLQQSGAELVRSGASVKMSCKASGYTFTSHNMHWVKQTPGQGLEWIGYIYPGNGGTNYNQKFKGKATLTADTSSSTAYMQISSLTSEDSAVYFCTRDYYGNSFAYWGQGTLVTVSA
VL: DIVMTQSPSSLTEKAGERVSMSCKSSQSLFNSGNQKNYLTWYQQKPGQPPKLLIYWASTRESGVPDRFTGSGSGTDFTLTISSVQAEDLAVYYCQNDYWYPFTFGAGTKLELK
notes: mouse hybridoma mAb
B2: 241H10A1 (antibody, V domains shown)
VH: QVQLQQSGAELVKPGASVKLSCKASGYTFTSFGINWLRQRPEQGLEWIGWIFPGDGNSKYNENFKGKATLTTDKSSSTAYMQVTRLTSEDSAVYFCARFYYGNSFANWGQGTLVTVSA
VL: B1 VL with E13V, K14T, R18K, S20T, F30L, S58A, W99F, A106G
notes: mouse hybridoma mAb
B3: 234A10F7 (antibody, V domains shown)
VH: B2 VH with V83L, N107Y
VL: B1 VL with E13V, K14T, A15T, E17Q, R18K, S20T, F30L, S58A, W99F
notes: mouse hybridoma mAb
B4: 257B1G9 (antibody, V domains shown)
VH: B1 VH
VL: B1 VL with K14R, W99R
notes: mouse hybridoma mAb
B5: 233D5E5 (antibody, V domains shown)
VH: B1 VH with G42R, G57D
VL: B1 VL with D97A
notes: mouse hybridoma mAb
B6: 234C9G5 (antibody, V domains shown)
VH: B1 VH with T28A, Y52S, G57Y, K65R, S84G
VL: B1 VL with D97N, Y100F
notes: mouse hybridoma mAb
B7: 267H5F12 (antibody, V domains shown)
VH: B1 VH with Y52S, G57Y, K65R, A106T
VL: B1 VL with D76E, D97N, Y100F
notes: mouse hybridoma mAb
B8: 259C6F7 (antibody, V domains shown)
VH: B1 VH with T30S, M34I, G57D, T97A, A106V
VL: B1 VL with T5I, R18K, F30L, D97A, W99R, Y100F
notes: mouse hybridoma mAb
B9: 235A10C9 (antibody, V domains shown)
VH: B1 VH with T30A, G56S, N59K, K65T, S84T, T97A
VL: B1 VL with R18K, S22R, F30L, E87D, W99M, Y100F
notes: mouse hybridoma mAb
B10: 239H12G9 (antibody, V domains shown)
VH: B1 VH with M34I, G57A, T58P, K65R, T97A, A106V
VL: B1 VL with R18K, F30L, W99R
notes: mouse hybridoma mAb
B11: 273C10E5 (antibody, V domains shown)
VH: B2 VH
VL: B1 VL with E13V, K14T, R18K, S20T, F30L, S58A, T69A, W99F
notes: mouse hybridoma mAb
B12: 257F1E11 (antibody, V domains shown)
VH: B1 VH with M34I, G42R
VL: B1 VL with V91I
notes: mouse hybridoma mAb
B13: 257G7B9 (antibody, V domains shown)
VH: B1 VH with M34L, G57N
VL: B1 VL with D97N, Y100F
notes: mouse hybridoma mAb
B14: 260G9E8 (antibody, V domains shown)
VH: B1 VH with Y3D, T30A, N59K, K65T, S84T, T97A
VL: B1 VL with R18K, S22R, F30L, E87D, W99M, Y100F
notes: mouse hybridoma mAb
B15: 277F1F8 (antibody, V domains shown)
VH: B1 VH with A9P, Y52N, T58N, T97A, Y107F
VL: B1 VL with K14T, R18K, F30L, W99R, Y100F
notes: mouse hybridoma mAb
B16: 242H12D6 (antibody, V domains shown)
VH: B1 VH with S84N
VL: B1 VL with W99R
notes: mouse hybridoma mAb
B17: 256C3D3 (antibody, V domains shown)
VH: B1 VH with T28A, Y52S, G57Y, K65R, S84G
VL: B1 VL with D97N, Y100F
notes: mouse hybridoma mAb
B18: 252F1B10 (antibody, V domains shown)
VH: B1 VH with S84N
VL: B1 VL with W99R
notes: mouse hybridoma mAb
B19: 250F4G4 (antibody, V domains shown)
VH: B1 VH with G57R
VL: B1 VL with A15V
notes: mouse hybridoma mAb
B20: 250F4G1 (antibody, V domains shown)
VH: B1 VH with G57R
VL: B1 VL with A15V
notes: mouse hybridoma mAb
B21: 243B4F7 (antibody, V domains shown)
VH: B1 VH with M34L, G57N
VL: B1 VL with D97N, Y100F
notes: mouse hybridoma mAb
B22: 232D7C8 (antibody, V domains shown)
VH: B1 VH with T97A, Y101F
VL: B1 VL with V3L, E13A, K14T, R18K, K36R, K45R, W99R
notes: mouse hybridoma mAb
B23: 259C6F4 (antibody, V domains shown)
VH: B1 VH with T30S, M34I, G57D, T97A, A106V
VL: B1 VL with T5I, R18K, F30L, D97A, W99R, Y100F
notes: mouse hybridoma mAb
B24: 257G7F7 (antibody, V domains shown)
VH: B1 VH with M34L, G57N
VL: B1 VL with D97N, Y100F
notes: mouse hybridoma mAb
B25: 262H9H6 (antibody, V domains shown)
VH: B1 VH with Y52S, G57Y, K65R, A106T
VL: B1 VL with D76E, D97N, Y100F
notes: mouse hybridoma mAb
B26: 240D6F5 (antibody, V domains shown)
VH: B1 VH with T74P, S84N
VL: B1 VL with W99R
notes: mouse hybridoma mAb
B27: 258D11C4 (antibody, V domains shown)
VH: B1 VH with T30S
VL: B1 VL with E61Q, Y100F
notes: mouse hybridoma mAb
B28: 244A1B8 (antibody, V domains shown)
VH: B1 VH with M34I, G57A, T58P, K65R, T97A, A106V
VL: B1 VL with R18K, F30L, W99R
notes: mouse hybridoma mAb
B29: 243B4F2 (antibody, V domains shown)
VH: B1 VH with M34L, G57N
VL: B1 VL with D97N, Y100F
notes: mouse hybridoma mAb
B30: 234E1F12 (antibody, V domains shown)
VH: B1 VH with G42R, G57D
VL: B1 VL with D97A
notes: mouse hybridoma mAb
B31: 243F6D2 (antibody, V domains shown)
VH: B1 VH with K23R, N59Y, T97A, A106V
VL: B1 VL with I2V, A15T, R18K, F30L, V84L, A86T, D97N, W99R
notes: mouse hybridoma mAb
B32: 231H4G11 (antibody, V domains shown)
VH: B1 VH with M34I, Y52S, G57Y, K65R
VL: B1 VL with N34S, T69S, D97N, Y100F
notes: mouse hybridoma mAb
B33: 217D9G2 (antibody, V domains shown)
VH: QAYLQQSGAELVRSGASVKMSCKASGFTFTSYNIHWVKQTPGQGLEWIGYISPGNGGSNYNLNFKDKATLTAATSSTTAYMQISSLTSEDSAVYFCATGRGFAYWGQGTLVTVSA
VL: DIVMTQSPSSLTVTPGEKVTMSCRSSQSLFNSGNQKNYLIWYQQKPGQPPKLLIYRASTRDSGVPDRFTGSGSGTDFTLTISNVQAEDLAVYYCQNDYSYPLTFGAGTKLELK
notes: mouse hybridoma mAb
B34: 203A6C9 (antibody, V domains shown)
VH: QVQLKQSGPGLVQPSQSLSITCTVSGFSLTRYGVHWVRQSPGKGLEWLGVIWSGGNTDYNAAFISRLNIRKDNSKSQVFFKMNSLKPNDTAIYYCARAAYFGNSFDYWGQGTTLTVSS
VL: B33 VL with T12P, P15A, R24K, F30L, I40T, R56W, N83S, D97N, S99I
notes: mouse hybridoma mAb
B35: 194D3B2 (antibody, V domains shown)
VH: QAYLQQSGAELVRSGASVKMSCKASGYPFTSYNMHWVKQTPGQGLEWVGYIYPGNGGTNYNQKFRDKATLTADTSSSTAYMQISRLTSDDSAVYFCLTGRGFAYWGQGTLVTVSA
VL: B33 VL with T12I, K18R, R24K, F30L, I40T, D61E, N83S, A106I
notes: mouse hybridoma mAb
B36: 185F2G12 (antibody, V domains shown)
VH: QAYLQQSGAELVRSGASVKMSCKASGYTFTSYNMHWVRQTPGQGLEWIGYIYPGNGGTNYSQKFKGKASLTADTSSTTAYMQISSLTSEDSAVYFCATGRGFAYWGQGTLVTVSA
VL: B33 VL with P15A, M21L, R24K, S32T, I40T, Y55F, D61E, S73F, N83S, Y98F
notes: mouse hybridoma mAb
B37: 219F9B8 (antibody, V domains shown)
VH: B36 VH with K19R, R38K, G57H, S61N, S69T, T77S
VL: B33 VL with P15A, R24K, F30L, I40T, D61E, N83S, A106V
notes: mouse hybridoma mAb
B38: 198F10B8 (antibody, V domains shown)
VH: B35 VH with K19R, P28T, T30S, V48I, R65K, Y80F, M81I, R85S, D89E
VL: B1 VL with E13V, K14T, S20T, W56R, W99S, F102L, A106V
notes: mouse hybridoma mAb
B39: 213B10A4 (antibody, V domains shown)
VH: B36 VH with L4V, K23R, R38K, N59Y, S61N, S69T, T77S
VL: B33 VL with P15A, R24K, F30L, I40T, D61E, S73F, N83S
notes: mouse hybridoma mAb
B40: 222B6G5 (antibody, V domains shown)
VH: B33 VH with A2T, F27Y, S58T, N59Y, N63K, A72T, T77S
VL: B33 VL with R24K
notes: mouse hybridoma mAb; also called 222B6G5-2
B41: 182D10F1 (antibody, V domains shown)
VH: B36 VH with T30S, R38K, S61N, S69T, T77S, A97L, A103T
VL: B33 VL with P15A, S22N, R24K, I40T, D61E, N83S, A106V
notes: mouse hybridoma mAb
B42: 226A4B5 (antibody, V domains shown)
VH: B33 VH with K19R, S52Y, N55S, L62Q, N63K, K65M, D66G, A73D, T77S, A79V
VL: B33 VL with P15A, R24K, I40T, D61E, N83S, A106T
notes: mouse hybridoma mAb

target: T1, human Claudin18.2 (human); test: cell ELISA, Claudin18.2-expressing HEK293T cells
T1 construct: also called CLDN18.2
Description: To determine protein binding EC₅₀ by Cell ELISA, 96-well U-bottom microplates were pre-blocked with blocking buffer (5% MPBS, 1×PBS with 5% skim milk) overnight at 4° C. On the next day, the Claudin18.2-expressing HEK293T stable cell line was suspended at 1.5×10⁶ cells/ml in blocking buffer, added to the plate in 100 μl/well and incubated at room temperature for 1 hour.
Raw data were plotted with GraphPad Prism v6.02 software with four parameters, best-fit value program to analyze the EC₅₀.

EC50	Binder
0.582 nM	B1
1.66 nM	B2
0.857 nM	B3
0.948 nM	B4
0.803 nM	B5
0.562 nM	B6
~0.513 nM	B7
~0.443 nM	B8
0.63 nM	B9
0.732 nM	B10
0.181 nM	B11
57.8 nM	B12
1.02 nM	B13
0.821 nM	B14
~4410 nM	B15
0.744 nM	B16
0.729 nM	B17
0.53 nM	B18
0.199 nM	B19
0.415 nM	B20
~0.411 nM	B21

EC50	Binder
0.738 nM	B22
2.32 nM	B23
~0.413 nM	B24
0.879 nM	B25
1.77 nM	B26
~0.406 nM	B27
~0.439 nM	B28
0.684 nM	B29
0.57 nM	B30
0.96 nM	B31
1.01 nM	B32
0.908 nM	B33
0.916 nM	B34
1.09 nM	B35
1.73 nM	B36
1.16 nM	B37
1.82 nM	B38
2.33 nM	B39
1.13 nM and 1.38 nM	B40
1.65 nM	B41
1.59 nM	B42
